{"source": "patent US20240299584A1", "about": "“NON-CODING RNA PROTECTING AGAINST HEART FAILURE” (MEDIZINISCHE HOCHSCHULE HANNOVER, priority 2019, published 2024)", "molecules": {"B1": {"name": "circINSR: circRNA formed through backsplicing of the second exon of the insulin receptor gene transcript; overexpressed from plasmid or AAV (nucleic acid, listed as Homo sapiens)", "chain": "UGUGUCCCGGCAUGGAUAUCCGGAACAACCUCACUAGGUUGCAUGAGCUGGAGAAUUGCUCUGUCAUCGAAGGACACUUGCAGAUACUCUUGAUGUUCAAAACGAGGCCCGAAGAUUUCCGAGACCUCAGUUUCCCCAAACUCAUCAUGAUCACUGAUUACUUGCUGCUCUUCCGGGUCUAUGGGCUCGAGAGCCUGAAGGACCUGUUCCCCAACCUCACGGUCAUCCGGGGAUCACGACUGUUCUUUAACUACGCGCUGGUCAUCUUCGAGAUGGUUCACCUCAAGGAACUCGGCCUCUACAACCUGAUGAACAUCACCCGGGGUUCUGUCCGCAUCGAGAAGAACAAUGAGCUCUGUUACUUGGCCACUAUCGACUGGUCCCGUAUCCUGGAUUCCGUGGAGGAUAAUUACAUCGUGUUGAACAAAGAUGACAACGAGGAGUGUGGAGACAUCUGUCCGGGUACCGCGAAGGGCAAGACCAACUGCCCCGCCACCGUCAUCAACGGGCAGUUUGUCGAACGAUGUUGGACUCAUAGUCACUGCCAGAAAG", "modifications": "circular RNA; RNA sequence", "notes": "circRNA formed through backsplicing of the second exon of the insulin receptor gene transcript; overexpressed from plasmid or AAV"}}, "key": {"apoptotic cardiomyocytes": {"system": "apoptotic cardiomyocytes", "assay": "TUNEL and cardiac troponin T co-staining of heart sections", "assay_type": "in vivo, mouse", "settings": "transversal heart sections, doxorubicin model; circINSR given as AAV9", "experimental": "(§1) In addition to apoptosis, doxorubicin is known to cause cardiomyocyte atrophy^12 (G). Thus, histopathology analyses were performed on transversal heart section.\nCells were fixed with 4% paraformaldehyde for twenty minutes at room temperature and then permeabilized with ice-cold 0.1% Triton-X-100 in PBS for two minutes at room temperature. Next cells were incubated with enzyme labelling solution provided with In Situ cell death detection kit (Roche) for 1 hour at 37° C. For negative staining, enzyme was not added to the labelling solution. Cells were then washed and incubated with Dapi for 15 minutes. To specifically label neonatal rat cardiomyocytes and hipsc-CM, cells were co-stained with cardiac Troponin T (Thermofisher) after Tunel staining. Images were taken with Nikon Eclipse Ti microscope and images were analyzed with NIS Elements. For analysis in each case, ten different images were analyzed from different regions and average value was taken. Similarly, cryosections of heart were also processed for staining. Numerous images covering complete heart section was taken and Tunel positive nuclei were counted in each field. Average value for each heart was calculated."}, "cardiomyocytes": {"system": "cardiomyocytes", "assay": "Cardiomyocyte size on wheat germ agglutinin stained heart sections", "assay_type": "in vivo, mouse", "settings": "WGA stained heart sections, doxorubicin model; circINSR given as AAV9", "experimental": "as §1\nCryosections of heart were stained with Alexa Fluor 488 labelled wheat germ agglutinin (Invitrogen) and dapi. Images were taken with Nikon Eclipse Ti microscope and images were analyzed with NIS Elements. For each heart 5 to 10 images were randomly taken from different regions of the section and minimum two hundred cells were measured and average value was taken for each heart."}, "HL-1 cells": {"system": "HL-1 cells", "assay": "mtDNA copy number measurement", "assay_type": "cell-based, mouse", "settings": "doxorubicin 0.25 μM 48 h, circ-Insr by overexpression plasmid", "experimental": "Based on the results of the foregoing examples, it was reasoned that circ-Insr could interact with SSBP1. To further confirm the interaction between circ-Insr and SSBP1, siRNA mediated circ-Insr knock-down was applied in HL-1 cells. Next, RNA pulldown was performed with circ-Insr and scramble biotinylated probes. RT-qPCR confirmed that decrease of circ-Insr appeared both in input and circ-Insr pulldown group (FIG. 23A). […] Therefore, we assumed that circ-Insr is a cofactor of SSBP1 resulting in the regulation of mitochondrial function in cardiomyocytes by stabilizing mtDNA. […] Furthermore, mito-damage assay was applied to measure the changes in mitochondrial membrane potential (MMP). […] Next, we co-transfected HL-1 cells with pcDNA-circ-Insr and SSBP1 siRNA and examined cell viability using the WST assay to explore whether SSBP1 participated in the circ-Insr overexpression-mediated therapy of doxorubicin-cardiotoxicity. RT-qPCR indicated SSBP1 siRNA could downregulate endogenous SSBP1 expression (FIG. 23G).\nThe ratio of mtDNA to genomic DNA was calculated by dividing copies of CYTB with copies of ACTB in each experiment (Li J, Chan M C, Yu Y, Bei Y H, Chen P, Zhou Q L, et al. miR-29b contributes to multiple types of muscle atrophy. Nature communications. 2017; 8). […] Fluorescence was measured during the last step of each cycle using the SYBR channel. […]"}}, "data": [{"molecule": "B1", "values": [{"measurement": "apoptotic cardiomyocytes (TUNEL / cTNT)", "setting": "apoptotic cardiomyocytes", "result": "significantly blunted"}, {"measurement": "cardiomyocyte size", "setting": "cardiomyocytes", "result": "indistinguishable from control mice"}, {"measurement": "mtDNA copy number / mtDNA content", "setting": "HL-1 cells", "result": "reverse the decrease"}]}]}
